Measurements published in patent US20190233493A1 (Sanofi, published 2019).
*1 amine or outer side, *2 acyl side, *3 side chain or, on linkers, in order; H or OH if unused. Side-chain parts run from the residue outwards. [ ]: non-standard residue; d: D form. The star is where a group is joined. PEG12 = NCCOCCOCCOCCOCCOCCOCCOCCOCCOCCOCCOCCOCCC(=O)O; γGlu = O=C(O)[C@H](CCC(=O)[*:2])N[*:1]; Stearoyl = CCCCCCCCCCCCCCCCCC(=O)*; Palmitoyl = CCCCCCCCCCCCCCCC(=O)*; Nle = CCCC[C@H](N)C(=O)O; Aib = CC(C)(N)C(=O)O

T1: RXFP1 receptor (UniProt Q9HBX9 1-757, limits assumed)
T1 sequence (looked up): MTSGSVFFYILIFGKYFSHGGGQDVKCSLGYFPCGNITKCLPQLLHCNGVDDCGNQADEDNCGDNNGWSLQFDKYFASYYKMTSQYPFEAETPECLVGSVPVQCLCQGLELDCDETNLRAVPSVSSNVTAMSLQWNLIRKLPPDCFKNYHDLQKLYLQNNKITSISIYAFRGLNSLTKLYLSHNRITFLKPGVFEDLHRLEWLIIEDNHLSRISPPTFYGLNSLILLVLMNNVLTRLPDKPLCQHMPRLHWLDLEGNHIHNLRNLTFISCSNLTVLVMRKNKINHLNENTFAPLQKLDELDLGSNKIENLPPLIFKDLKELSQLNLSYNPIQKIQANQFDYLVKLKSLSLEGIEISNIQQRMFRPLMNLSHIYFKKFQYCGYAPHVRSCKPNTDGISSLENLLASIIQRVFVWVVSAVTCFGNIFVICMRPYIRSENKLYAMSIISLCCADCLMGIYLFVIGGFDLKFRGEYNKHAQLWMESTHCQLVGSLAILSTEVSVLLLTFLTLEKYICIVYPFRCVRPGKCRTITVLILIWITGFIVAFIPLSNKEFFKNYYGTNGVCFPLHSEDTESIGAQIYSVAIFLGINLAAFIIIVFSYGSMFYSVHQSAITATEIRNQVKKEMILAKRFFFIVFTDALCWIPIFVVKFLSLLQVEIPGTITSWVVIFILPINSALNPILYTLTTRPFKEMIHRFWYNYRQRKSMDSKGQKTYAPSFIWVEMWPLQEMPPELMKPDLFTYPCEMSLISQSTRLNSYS


Target: T1, RXFP1 receptor
Assay: cell-based or functional assay

| Binder | EC50 (nM), OVCAR 5 cells (cAMP) | EMax, OVCAR 5 cells (cAMP) |
| --- | --- | --- |
| Ac-LEGREKVRAK(Ac)I[Aib][Aib]EG[Nle]STWS[Aib]RK[PEG12]K([γGlu-γGlu-γGlu-Stearoyl])-NH2 [peptide of SEQ ID NO: 34] | 4.73 nM | 95% |
| Ac-ELEGREKVRAAI[Aib][Aib]EG[Nle]STWS[Aib]RKK([γGlu-γGlu-Palmitoyl])-NH2 (SMILES CCCCCCCCCCCCCCCC(=O)N[C@@H](CCC(=O)N[C@@H](CCC(=O)NCCCC[C@H](NC(=O)[C@H](CCCCN)NC(=O)[C@H](CCCNC(=N)N)NC(=O)C(C)(C)NC(=O)[C@H](CO)NC(=O)[C@H](Cc1c[nH]c2ccccc12)NC(=O)[C@@H](NC(=O)[C@H](CO)NC(=O)[C@H](CCCC)NC(=O)CNC(=O)[C@H](CCC(=O)O)NC(=O)C(C)(C)NC(=O)C(C)(C)NC(=O)[C@@H](NC(=O)[C@H](C)NC(=O)[C@H](C)NC(=O)[C@H](CCCNC(=N)N)NC(=O)[C@@H](NC(=O)[C@H](CCCCN)NC(=O)[C@H](CCC(=O)O)NC(=O)[C@H](CCCNC(=N)N)NC(=O)CNC(=O)[C@H](CCC(=O)O)NC(=O)[C@H](CC(C)C)NC(=O)[C@H](CCC(=O)O)NC(C)=O)C(C)C)[C@@H](C)CC)[C@@H](C)O)C(N)=O)C(=O)O)C(=O)O) [peptide of SEQ ID NO: 4] | 31.7 nM | 99% |
| Ac-LEGREKVRAK(Ac)I[Aib][Aib]EGMSTWS[Aib]RK[PEG12]K([γGlu-γGlu-γGlu-Stearoyl])-NH2 (SMILES CCCCCCCCCCCCCCCCCC(=O)N[C@@H](CCC(=O)N[C@@H](CCC(=O)N[C@@H](CCC(=O)NCCCC[C@H](NC(=O)CCOCCOCCOCCOCCOCCOCCOCCOCCOCCOCCOCCOCCNC(=O)[C@H](CCCCN)NC(=O)[C@H](CCCNC(=N)N)NC(=O)C(C)(C)NC(=O)[C@H](CO)NC(=O)[C@H](Cc1c[nH]c2ccccc12)NC(=O)[C@@H](NC(=O)[C@H](CO)NC(=O)[C@H](CCSC)NC(=O)CNC(=O)[C@H](CCC(=O)O)NC(=O)C(C)(C)NC(=O)C(C)(C)NC(=O)[C@@H](NC(=O)[C@H](CCCCNC(C)=O)NC(=O)[C@H](C)NC(=O)[C@H](CCCNC(=N)N)NC(=O)[C@@H](NC(=O)[C@H](CCCCN)NC(=O)[C@H](CCC(=O)O)NC(=O)[C@H](CCCNC(=N)N)NC(=O)CNC(=O)[C@H](CCC(=O)O)NC(=O)[C@H](CC(C)C)NC(C)=O)C(C)C)[C@@H](C)CC)[C@@H](C)O)C(N)=O)C(=O)O)C(=O)O)C(=O)O) [peptide of SEQ ID NO: 35] | 1.69 nM | 95% |
| Ac-LEGREKVRAQI[Aib][Aib]EG[Nle]STWS[Aib]RK[PEG12]K([γGlu-γGlu-γGlu-Stearoyl])-NH2 (SMILES CCCCCCCCCCCCCCCCCC(=O)N[C@@H](CCC(=O)N[C@@H](CCC(=O)N[C@@H](CCC(=O)NCCCC[C@H](NC(=O)CCOCCOCCOCCOCCOCCOCCOCCOCCOCCOCCOCCOCCNC(=O)[C@H](CCCCN)NC(=O)[C@H](CCCNC(=N)N)NC(=O)C(C)(C)NC(=O)[C@H](CO)NC(=O)[C@H](Cc1c[nH]c2ccccc12)NC(=O)[C@@H](NC(=O)[C@H](CO)NC(=O)[C@H](CCCC)NC(=O)CNC(=O)[C@H](CCC(=O)O)NC(=O)C(C)(C)NC(=O)C(C)(C)NC(=O)[C@@H](NC(=O)[C@H](CCC(N)=O)NC(=O)[C@H](C)NC(=O)[C@H](CCCNC(=N)N)NC(=O)[C@@H](NC(=O)[C@H](CCCCN)NC(=O)[C@H](CCC(=O)O)NC(=O)[C@H](CCCNC(=N)N)NC(=O)CNC(=O)[C@H](CCC(=O)O)NC(=O)[C@H](CC(C)C)NC(C)=O)C(C)C)[C@@H](C)CC)[C@@H](C)O)C(N)=O)C(=O)O)C(=O)O)C(=O)O) [peptide of SEQ ID NO: 30] | 0.92 nM | 89% |
| Ac-LEGREKVRAQI[Aib][Aib]EG[Nle]STWS[Aib]RKK[PEG12]K([γGlu-γGlu-γGlu-Stearoyl])-NH2 (SMILES CCCCCCCCCCCCCCCCCC(=O)N[C@@H](CCC(=O)N[C@@H](CCC(=O)N[C@@H](CCC(=O)NCCCC[C@H](NC(=O)CCOCCOCCOCCOCCOCCOCCOCCOCCOCCOCCOCCOCCNC(=O)[C@H](CCCCN)NC(=O)[C@H](CCCCN)NC(=O)[C@H](CCCNC(=N)N)NC(=O)C(C)(C)NC(=O)[C@H](CO)NC(=O)[C@H](Cc1c[nH]c2ccccc12)NC(=O)[C@@H](NC(=O)[C@H](CO)NC(=O)[C@H](CCCC)NC(=O)CNC(=O)[C@H](CCC(=O)O)NC(=O)C(C)(C)NC(=O)C(C)(C)NC(=O)[C@@H](NC(=O)[C@H](CCC(N)=O)NC(=O)[C@H](C)NC(=O)[C@H](CCCNC(=N)N)NC(=O)[C@@H](NC(=O)[C@H](CCCCN)NC(=O)[C@H](CCC(=O)O)NC(=O)[C@H](CCCNC(=N)N)NC(=O)CNC(=O)[C@H](CCC(=O)O)NC(=O)[C@H](CC(C)C)NC(C)=O)C(C)C)[C@@H](C)CC)[C@@H](C)O)C(N)=O)C(=O)O)C(=O)O)C(=O)O) [peptide of SEQ ID NO: 31] | 0.71 nM | 86% |
| Ac-LEGREKVRAK(Ac)I[Aib][Aib]EG[Nle]STWS[Aib]RKK[PEG12]K([γGlu-γGlu-γGlu-Stearoyl])-NH2 (SMILES CCCCCCCCCCCCCCCCCC(=O)N[C@@H](CCC(=O)N[C@@H](CCC(=O)N[C@@H](CCC(=O)NCCCC[C@H](NC(=O)CCOCCOCCOCCOCCOCCOCCOCCOCCOCCOCCOCCOCCNC(=O)[C@H](CCCCN)NC(=O)[C@H](CCCCN)NC(=O)[C@H](CCCNC(=N)N)NC(=O)C(C)(C)NC(=O)[C@H](CO)NC(=O)[C@H](Cc1c[nH]c2ccccc12)NC(=O)[C@@H](NC(=O)[C@H](CO)NC(=O)[C@H](CCCC)NC(=O)CNC(=O)[C@H](CCC(=O)O)NC(=O)C(C)(C)NC(=O)C(C)(C)NC(=O)[C@@H](NC(=O)[C@H](CCCCNC(C)=O)NC(=O)[C@H](C)NC(=O)[C@H](CCCNC(=N)N)NC(=O)[C@@H](NC(=O)[C@H](CCCCN)NC(=O)[C@H](CCC(=O)O)NC(=O)[C@H](CCCNC(=N)N)NC(=O)CNC(=O)[C@H](CCC(=O)O)NC(=O)[C@H](CC(C)C)NC(C)=O)C(C)C)[C@@H](C)CC)[C@@H](C)O)C(N)=O)C(=O)O)C(=O)O)C(=O)O) [peptide of SEQ ID NO: 32] | 1.04 nM | 96% |
| Ac-LEGREKVRAK(Ac)I[Aib][Aib]EG[Nle]STWS[Aib]RKK(Ac)[PEG12]K([γGlu-γGlu-γGlu-Stearoyl])-NH2 (SMILES CCCCCCCCCCCCCCCCCC(=O)N[C@@H](CCC(=O)N[C@@H](CCC(=O)N[C@@H](CCC(=O)NCCCC[C@H](NC(=O)CCOCCOCCOCCOCCOCCOCCOCCOCCOCCOCCOCCOCCNC(=O)[C@H](CCCCNC(C)=O)NC(=O)[C@H](CCCCN)NC(=O)[C@H](CCCNC(=N)N)NC(=O)C(C)(C)NC(=O)[C@H](CO)NC(=O)[C@H](Cc1c[nH]c2ccccc12)NC(=O)[C@@H](NC(=O)[C@H](CO)NC(=O)[C@H](CCCC)NC(=O)CNC(=O)[C@H](CCC(=O)O)NC(=O)C(C)(C)NC(=O)C(C)(C)NC(=O)[C@@H](NC(=O)[C@H](CCCCNC(C)=O)NC(=O)[C@H](C)NC(=O)[C@H](CCCNC(=N)N)NC(=O)[C@@H](NC(=O)[C@H](CCCCN)NC(=O)[C@H](CCC(=O)O)NC(=O)[C@H](CCCNC(=N)N)NC(=O)CNC(=O)[C@H](CCC(=O)O)NC(=O)[C@H](CC(C)C)NC(C)=O)C(C)C)[C@@H](C)CC)[C@@H](C)O)C(N)=O)C(=O)O)C(=O)O)C(=O)O) [peptide of SEQ ID NO: 33] | 0.61 nM | 100% |
| Ac-LEGREKVR[Aib]K(Ac)I[Aib][Aib]EG[Nle]STWS[Aib]RKK(Ac)[PEG12]K([γGlu-γGlu-γGlu-Stearoyl])-NH2 (SMILES CCCCCCCCCCCCCCCCCC(=O)N[C@@H](CCC(=O)N[C@@H](CCC(=O)N[C@@H](CCC(=O)NCCCC[C@H](NC(=O)CCOCCOCCOCCOCCOCCOCCOCCOCCOCCOCCOCCOCCNC(=O)[C@H](CCCCNC(C)=O)NC(=O)[C@H](CCCCN)NC(=O)[C@H](CCCNC(=N)N)NC(=O)C(C)(C)NC(=O)[C@H](CO)NC(=O)[C@H](Cc1c[nH]c2ccccc12)NC(=O)[C@@H](NC(=O)[C@H](CO)NC(=O)[C@H](CCCC)NC(=O)CNC(=O)[C@H](CCC(=O)O)NC(=O)C(C)(C)NC(=O)C(C)(C)NC(=O)[C@@H](NC(=O)[C@H](CCCCNC(C)=O)NC(=O)C(C)(C)NC(=O)[C@H](CCCNC(=N)N)NC(=O)[C@@H](NC(=O)[C@H](CCCCN)NC(=O)[C@H](CCC(=O)O)NC(=O)[C@H](CCCNC(=N)N)NC(=O)CNC(=O)[C@H](CCC(=O)O)NC(=O)[C@H](CC(C)C)NC(C)=O)C(C)C)[C@@H](C)CC)[C@@H](C)O)C(N)=O)C(=O)O)C(=O)O)C(=O)O) [peptide of SEQ ID NO: 36] | 0.89 nM | 84% |
